Measurements as given in doi:10.1101/870667.
Read-outs that look alike come from different tables or passages of the source.

Experiments:
[1] = target: MLL1 core complex (MWRAD2 holo-complex) (human) (UniProt Q03164); assay: AUC
[2] = target: MLL1 core complex (MWRAD2 holo-complex) (human) (UniProt Q03164); assay: AUC; remark: listed apart in the source

stoichiometry N [1]: 2
stoichiometry N [2]: 18
Substance: MLL1 core complex (MWRAD2 holo-complex) (from UniProt Q03164;P61964;Q15291;Q9UBL3-3;Q9C005)
